Laboratory results published in patent publication US20100291078A1 (published 2010).

Legend:
human CD38-Fc = biological target: T1, human CD38-Fc (human, UniProt P28907 43-300, limits assumed); assay: SPR (Biacore 3000), CD38-Fc immobilized, 1:1 fit, apparent
T1 construct: not shown: Fc part

human CD38 on cells = biological target: T2, human CD38 on cells (human, UniProt P28907 1-300); assay: FACS titration on CD38 expressing RPMI8226 cells
T2 construct: whole, on cells; The species is stated for the CHO-K1 transfectants; also called CHO-K1 cells recombinantly expressing human CD38; CD38 expressing RPMI8226 cell

B1: MOR03080 IgG1 (antibody, V domains shown)
VH: QVQLVESGGGLVQPGGSLRLSCAASGFTFSSYGMHWVRQAPGKGLEWVSNIYSDGSNTFYADSVKGRFTISRDNSKNTLYLQMNSLRAEDTAVYYCARNMYRWPFHYFFDYWGQGTLVTVSS
VL: DIELTQPPSVSVAPGQTARISCSGDNIGNKYVSWYQQKPGQAPVVVIYGDNNRPSGIPERFSGSNSGNTATLTISGTQAEDEADYYCSSYDSSYFVFGGGTKLTVLG
Kd (human CD38-Fc): 3 nM
EC50 (human CD38 on cells): 0.4 nM
